Source: patent US20230340065A1 (published 2023)

B1: TCR T402-93 (TCR, V domains shown)
Valpha: GQQVMQIPQYQHVQEGEDFTTYCNSSTTLSNIQWYKQRPGGHPVFLIQLVKSGEVKKQKRLTFQFGEAKKNSSLHITATQTTDVGTYFCAGALPRAGSYQLTFGKGTKLSVIP
Vbeta: SQTIHQWPATLVQPVGSPLSLECTVEGTSNPNLYWYRQAAGRGLQLLFYSVGIGQISSEVPQNLSASRPQDRQFILSSKKLLLSDSGFYLCAWSLGAGYTDTQYFGPGTRLTVL
B2: TCR T116-49 (TCR, V domains shown)
Valpha: QQPVQSPQAVILREGEDAVINCSSSKALYSVHWYRQKHGEAPVFLMILLKGGEQKGHEKISASFNEKKQQSSLYLTASQLSYSGTYFCGTANSGGSNYKLTFGKGTLLTVNP
Vbeta: DAGITQSPRHKVTETGTPVTLRCHQTENHRYMYWYRQDPGHGLRLIHYSYGVKDTDKGEVSDGYSVSRSKTEDFLLTLESATSSQTSVYFCAISDYEGTEAFFGQGTRLTVV

Assays:
[1] = target: T1, FBXO24 peptide on HLA-A*24:02 (human); assay: cytokine release
T1 peptide: DYVGTLFFL

[2] = target: T2, XXYLT1 peptide on HLA-A*24:02 (human); assay: cytokine release
T2 peptide: YYSDSIFFL

[3] = target: T3, GTPBP6 peptide on HLA-A*24:02 (human); assay: cytokine release
T3 peptide: LYVDTIGFL

[4] = target: T4, KCNK12 peptide on HLA-A*24:02 (human); assay: cytokine release
T4 peptide: DYVDSLYFC

[5] = target: T5, CATSPERB peptide on HLA-A*24:02 (human); assay: cytokine release
T5 peptide: LYYDHLGFL

[6] = target: T6, PRAME peptide on HLA-A*24:02 (human); assay: multimer staining
T6 peptide: LYVDSLFFL

[7] = target: T7, PRAME peptide on HLA-A*02:17 (human); assay: cytokine release
T7 peptide: LYVDSLFFL

Row | Binder | binding result [1] | binding result [2] | binding result [3] | binding result [4] | binding result [5] | binding result [6] | binding result [7]
1 | B1 | no recognition | recognises | recognises | recognises | recognises | recognises | –
2 | B2 | recognises | no recognition | no recognition | no recognition | no recognition | recognises | recognises
